For assay [1], the target named is T1, CaN PxIxIT binding site (CaNA, catalytic subunit of calcineurin) (Homo sapiens, UniProt Q08209, L343A/M347D/Y341S).
T1 construct: GST; made in house; host or cells: E. coli BL21
As to the kind of experiment: Fluorescence Polarization (FP) competition assay with FITC-labeled PVIVIT peptide. To be noted: for ability to compete with PVIVIT for CaN binding: result in words; for IC50: competition with 100 nM FITC-labeled PVIVIT peptide, 4 uM CaNA, single site inhibition model, read-out: IC50: half maximal inhibitory concentration. On the procedure:
(§1) Fluorescence Polarization (FP) competition assay. Fluorescence measurements were performed on samples arrayed in a 96-well plate using Biotek HybridHI reader equipped with a polarized optic system. All measurements were done in triplicate. […] Experimental polarization data from simple and competitive binding experiments were fitted using GraphPad Prism7, with error bars representing standard deviation.
Selected peptides were synthesized and their ability to specifically bind the CaN PxIxIT binding site was evaluated by FP competition assay.
(§2) Polarization levels were read and normalized values were fitted to a single site model.
The above peptides are synthesized and their ability to specifically bind the CaN PxIxIT binding site is evaluated by FP competition assay. […] After fitting the polarization values to a single site inhibition model, the corresponding IC50 values are extracted.
A general note: Fluorescence polarisation rises when a labelled molecule tumbles more slowly, as on binding a larger partner.

For assay [2], the target named is T2, Catalytic subunit of calcineurin (CaNA), residues 2-347 with substitutions Y341S, L343A and M347D (UniProt Q08209 2-347).
T2 construct: range 2-347; Expressed as a cleavable GST fusion and purified on a GST column and by size exclusion; The microarray used GST-tagged CaN; also called Cn
As to the kind of experiment: FP competition assay against FITC-PVIVIT (100 nM) on CaNA (4 uM); single site inhibition fit. On the procedure:
as §1
(§3) Selected peptides were synthesized and their ability to specifically bind the CaN PxIxIT binding site was evaluated by FP competition assay. […] After fitting the polarization values to a single site inhibition model, the corresponding IC₅₀ values were extracted and reported in Table 2.

Assay [3] deals with T2, Catalytic subunit of calcineurin …. As to the kind of experiment: FP competition assay against FITC-PVIVIT on CaNA. On the procedure:
as §1, §3

Assay [4] shares this target. As to the kind of experiment: fluorescence polarization competition; unlabeled peptide titrated against 100 nM FITC-labeled PVIVIT bound to 4 uM CaNA. On the procedure: as §1, §3, §2

T1 sequence (Q08209 2-347 Y341S/L343A/M347D): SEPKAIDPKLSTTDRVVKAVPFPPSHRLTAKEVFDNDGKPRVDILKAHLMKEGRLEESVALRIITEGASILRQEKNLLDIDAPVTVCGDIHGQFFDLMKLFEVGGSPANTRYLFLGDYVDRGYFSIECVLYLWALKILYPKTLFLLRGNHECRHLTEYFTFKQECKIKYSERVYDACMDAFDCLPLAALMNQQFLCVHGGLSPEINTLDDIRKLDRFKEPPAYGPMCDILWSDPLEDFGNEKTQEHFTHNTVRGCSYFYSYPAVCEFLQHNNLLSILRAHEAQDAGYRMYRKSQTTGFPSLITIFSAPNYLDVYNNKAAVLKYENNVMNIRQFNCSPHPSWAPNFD
T2 sequence (Q08209 2-347 Y341S/L343A/M347D): as above

In the case of Ac-AAGAGVGIVITVTEAE-NH2 [rbmAKAP79], the “ability to compete with PVIVIT for CaN binding” value in assay [1] is listed as “successfully competed with PVIVIT binding”.

For “Ac-ADEAVPQIIISAEELP-NH2 [TRESK, reference compound]”, in assay [1], the IC50 was determined as 54 µM.

For Ac-ADGAGVGIVITVTEAE-NH2 [rbmAKAP79_2], the “ability to compete with PVIVIT for CaN binding” value in assay [1] is given as “successfully competed with PVIVIT binding”.

Take Ac-ADEAIPEIVISKPEEP-NH2 [rbmTRESK]: the IC50 in assay [1] stood at 14 µM. Also, the “IC50 relative to closest natural counterpart (human TRESK fragment)” value in assay [1] (rbmTRESK vs natural TRESK fragment) is on record as “almost four times lower”.

B1: rbmRIPOR2 (designed binder)
peptide: Ac-ASVSNPEITVTSAETE-NH2
Consider B1, for which the IC50 in assay [2] came to 79 µM.

B2: rbmAKAP79 (designed binder)
peptide: Ac-AAGAGVGIVITVTEAE-NH2
Regarding B2, in assay [2], the IC50 was determined as 57 µM.

B3: rbmAKAP79_2 (designed binder)
peptide: Ac-ADGAGVGIVITVTEAE-NH2
Take B3: the IC50 in assay [2] is 69 µM.

B4: rbmRIPOR2_2 (designed binder)
peptide: Ac-HVSSSPRITITPTQHR-NH2
With B4, the IC50 in assay [2] stood at 200 µM.

B5: rbmTRESK (designed binder)
peptide: Ac-ADEAIPEIVISKPEEP-NH2
As for B5, the “fold lower IC50 than the CaN-binding fragment of human TRESK protein (SEQ ID NO: 3)” value in assay [3] is ~4 fold. Moreover, the “IC50 (read off the curve)” value in assay [4] was ~10 µM.

B6: rbmTRESK_2 (designed binder)
peptide: Ac-ADEAIPEITITSAELP-NH2
Regarding B6, the IC50 in assay [2] was determined as 60 µM.
